Reference: patent publication US20130136718A1
Like-named read-outs stand apart in the source and are kept apart here.

Legend:
CD20 (human) [1] = molecular target: CD20 (human) (UniProt P11836); experiment: cell-based or functional assay
CD20 (human) [2] = molecular target: CD20 (human) (UniProt P11836); experiment: cell-based or functional assay; remark: listed apart in the source

Sequence of CD20 (human) (P11836 whole entry): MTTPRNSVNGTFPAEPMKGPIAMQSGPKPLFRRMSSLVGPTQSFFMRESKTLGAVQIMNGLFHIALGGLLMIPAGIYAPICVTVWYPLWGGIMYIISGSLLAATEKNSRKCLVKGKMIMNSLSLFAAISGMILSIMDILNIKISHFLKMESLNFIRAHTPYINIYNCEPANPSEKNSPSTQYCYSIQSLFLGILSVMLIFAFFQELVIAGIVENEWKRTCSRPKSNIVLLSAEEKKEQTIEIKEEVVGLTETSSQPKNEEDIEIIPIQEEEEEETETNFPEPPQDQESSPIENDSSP

| in vitro proliferation of Jeko-1 cells, high-concentration response, EC50 (CD20 (human) [1]) [nM] | in vitro proliferation of Daudi cells, potency against non-targeting MAb-IFNα constructs (CD20 (human) [2]) [fold] | in vitro proliferation of Jeko-1 cells, low-concentration response, EC50 (CD20 (human) [2]) [nM] | in vitro proliferation of Jeko-1 cells, potency against 734-2b (CD20 (human) [2]) [fold] | in vitro proliferation of Jeko-1 cells, EC50 (CD20 (human) [1]) [nM] | in vitro proliferation of Jeko-1 cells, EC50 (CD20 (human) [2]) [nM] | Substance |
| --- | --- | --- | --- | --- | --- | --- |
| 0.85 | 30 | 0.00097 | 25 |  |  | 20-2b (from UniProt P01563 24-188) |
|  |  |  |  | 1.5 | 1 | veltuzumab (antibody) |
